Assay results as given in patent US20210132065A1, “MAMMALIAN MHC PEPTIDE DISPLAY AS AN EPITOPE SELECTION TOOL FOR VACCINE DESIGN” (ETH Zürich, priority 2018, published 2021).
Entries after “also recorded” stand apart in the source; their conditions may differ. Read-outs that look alike come from different tables or passages of the source. Where no end group is shown, it is not given here.

What was measured:
HLA-DRB1_15 = HLA-DRB1_15 (Homo sapiens, UniProt P01903+P01911); assay type: cell-based; details: for MCR surface expression: peptide covalently linked to beta chain, anti-HLA-DR APC antibody, FACS
HLA-DRB5_1 = HLA-DRB5_1 (Homo sapiens, UniProt P01903+Q30154); assay type: cell-based; details: for MCR surface expression: peptide covalently linked to beta chain, anti-HLA-DR APC antibody, FACS
[1] = FIG. 6, anti-CD3e or anti-HLA-DR PE antibodies, peptides containing the core epitope with different flanking regions

HLA-DRB1_15, sequence (P01911 30-227 limits assumed): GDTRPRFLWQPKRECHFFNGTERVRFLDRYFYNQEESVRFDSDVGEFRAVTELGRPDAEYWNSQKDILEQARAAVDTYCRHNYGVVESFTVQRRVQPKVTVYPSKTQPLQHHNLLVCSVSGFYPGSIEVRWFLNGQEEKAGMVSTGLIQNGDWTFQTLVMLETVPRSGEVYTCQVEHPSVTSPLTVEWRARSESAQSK
HLA-DRB1_15, sequence (P01903 26-216 limits assumed): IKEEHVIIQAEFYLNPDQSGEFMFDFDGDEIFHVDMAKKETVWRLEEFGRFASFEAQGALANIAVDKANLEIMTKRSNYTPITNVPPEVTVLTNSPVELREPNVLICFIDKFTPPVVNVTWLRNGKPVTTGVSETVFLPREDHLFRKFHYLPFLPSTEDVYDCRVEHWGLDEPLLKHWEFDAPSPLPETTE
HLA-DRB5_1, sequence (Q30154 30-227 limits assumed): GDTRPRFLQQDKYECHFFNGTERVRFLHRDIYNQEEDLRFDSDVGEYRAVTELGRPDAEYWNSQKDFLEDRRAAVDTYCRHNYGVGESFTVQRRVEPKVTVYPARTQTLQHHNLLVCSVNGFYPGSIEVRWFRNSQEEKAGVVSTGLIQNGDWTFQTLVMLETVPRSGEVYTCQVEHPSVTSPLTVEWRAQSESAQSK
HLA-DRB5_1, sequence (P01903 26-216 limits assumed): as the sequence (P01903 26-216 limits assumed) above

| Substance | MCR surface expression (HLA-DRB1_15) | MCR surface expression (HLA-DRB5_1) | MCR surface expression (HLA-DRB1_15; listed as MP1103-121) | MCR surface expression (HLA-DRB5_1; listed as MP1103-121) | presentation (MCR surface expression) (HLA-DRB1_15; [1]) | presentation (MCR surface expression) (HLA-DRB5_1; [1]) |
| --- | --- | --- | --- | --- | --- | --- |
| MP162-72: influenza Matrix Protein 1-derived peptide comprising amino acids 62-72, covalently linked to the HLA beta chain of the MCR (FVFTLTVPSER; also: covalently linked to HLA beta chain of the MCR; UniProt P03485 62-72, looked up, fragment) | not the other HLAs tested | efficient expression | – | – | – | – |
| MP1103-120: influenza Matrix Protein 1 peptide, amino acids 103-120, covalently linked to the HLA beta chain of the MCR (LKREITFHGAKEISLSYS; also: covalently linked to HLA beta chain of the MCR; UniProt P03485 103-120, looked up, fragment) | detectable at very low levels; also recorded: very low MCR expression | barely detected; also recorded: not expressed at all | low surface expression | not to bind at all | – | – |
| MP1107-117: core epitope of influenza Matrix Protein 1, amino acids 107-117, tested within peptides with different flanking regions (ITFHGAKEISL; UniProt P03485 107-117, looked up, fragment) | – | – | – | – | not by HLA-DRB1_15 | nor HLA-DRB5_1 |
